Assay results from patent US6960343B2, “Toll/interleukin-1 receptor adapter protein (TIRAP)” (Yale University School of Medicine, priority 2001, dated 2005).

What was measured:
[1] = molecular target: T1, CD4/TLR4 (constitutively active form of TLR4) (UniProt O00206+P06332); assay: CD4/TLR4-mediated NF-κB activation, luciferase reporter, 293T cells; format: cell-based; conditions: 50 ng, 250 ng, 1.0 μg construct
T1 construct: CD4 (fusion partner of the chimera); expressed in transfected cells; host or cells: 293T cells
T1 sequence (P06332+O00206 with tags, fused parts or gaps): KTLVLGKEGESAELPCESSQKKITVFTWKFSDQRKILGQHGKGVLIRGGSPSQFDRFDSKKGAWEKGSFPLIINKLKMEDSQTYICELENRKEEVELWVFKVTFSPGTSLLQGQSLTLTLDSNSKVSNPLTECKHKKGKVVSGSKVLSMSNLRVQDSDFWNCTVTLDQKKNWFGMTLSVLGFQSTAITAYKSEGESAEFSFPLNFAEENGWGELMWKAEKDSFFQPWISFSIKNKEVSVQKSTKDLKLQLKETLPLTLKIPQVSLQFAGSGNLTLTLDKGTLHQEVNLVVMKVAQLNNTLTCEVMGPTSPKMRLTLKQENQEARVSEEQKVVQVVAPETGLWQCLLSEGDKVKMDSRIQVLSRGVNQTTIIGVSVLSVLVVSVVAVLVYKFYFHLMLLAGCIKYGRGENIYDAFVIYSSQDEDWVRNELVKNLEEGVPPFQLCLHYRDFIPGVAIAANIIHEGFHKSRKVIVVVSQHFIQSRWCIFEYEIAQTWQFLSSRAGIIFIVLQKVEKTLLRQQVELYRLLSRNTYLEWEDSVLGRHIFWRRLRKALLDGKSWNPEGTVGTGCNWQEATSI
Description: To determine whether TIRAP P125H functions as a dominant negative, 293T cells were transfected with 0.25 μg of vector alone (pcDNA3) or CD4/TLR4 (a vector expressing a constitutively active form of TLR4) with or without increasing concentrations (50 ng, 250 ng, 1.0 μg) of either TIRAP P125H or MyD88 DN (a vector expressing MyD88 containing a proline to histidine mutation at the same position as TIRAP P125H) and the NF-κB-dependent luciferase reporter gene.

TLR4 = molecular target: T2, TLR4 (Homo sapiens, UniProt O00206); assay: Co-immunoprecipitation with Myc-tagged TLR4 in 293T cells; format: binding; conditions: 293T cell lysates, anti-Flag immunoprecipitation
T2 construct: a Myc-tagged TLR4 deletion construct lacking the ectodomain (Myc TLR4 wt); Myc; expressed in transfected cells; host or cells: 293T cells
T2 sequence (O00206 653-839 limits assumed): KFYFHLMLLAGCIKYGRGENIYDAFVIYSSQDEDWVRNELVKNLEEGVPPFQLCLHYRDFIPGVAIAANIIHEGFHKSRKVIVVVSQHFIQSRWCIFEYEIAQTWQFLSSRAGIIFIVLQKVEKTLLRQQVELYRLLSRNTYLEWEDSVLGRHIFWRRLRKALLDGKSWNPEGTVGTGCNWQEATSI
Text: Cells were transfected in the presence (+) or absence (−) of constructs encoding a wild-type portion of TLR4 (TLR4 wt), a mutant derivative thereof (TLR4 mut), wild-type TIRAP (TIRAP), a mutant TIRAP containing a P125H mutation (TIRAP PH), or wild-type MyD88 (MyD88), wherein each construct further encodes a Myc, Flag, or hemaglutanin (HA) tag, as indicated. Antibodies used for immunoprecipitation (IP) or immunoblot (IB) are indicated to the left of each blot.
To obtain biochemical conformation for a role of TIRAP in the TLR4 signaling pathway, TIRAP-TLR4 protein interactions were evaluated using co-immunoprecipitation experiments. 293T cells were co-transfected with 4.5 μg of a Myc-tagged TLR4 deletion construct lacking the ectodomain (Myc TLR4 wt) or its mutant derivative (Myc TLR4 P714H) in the presence or absence of 1.5 μg of Flag-tagged TIRAP (Flag TIRAP) or its mutant derivative containing the P125H mutation (Flag TIRAP PH). […] Immunocomplexes were washed, separated by SDS-PAGE electrophoresis, and then analyzed by immunoblotting with either anti-myc antibody to look for co-immunoprecipitated TLR4 or anti-Flag antibody to confirm immunoprecipitation of Flag TIRAP or Flag TIRAP P125H. Total cell lysates (35 μg/sample) were likewise analyzed by SDS-PAGE and immunoblotting to confirm equivalent expression of the appropriate proteins in every sample. […]

With “TIRAP P125H: vector encoding a mutant form of TIRAP containing a proline to histidine mutation at amino acid position 125” the “inhibition of NF-κB activation mediated by CD4/TLR4” value [1] was “strongly inhibited” and the “co-immunoprecipitation with TLR4” value (TLR4) was “filed to co-immunoprecipitate”.
